# B1: tag-free recombinant human pyridoxal 5'-phosphate-binding protein (PLPBP) (natural protein)
# chain: not shown
# modifications: pyridoxal 5'-phosphate bound at Lys47 (internal aldimine)
# B2: human PLPBP R41Q mutant (natural protein)
# chain: not shown
# modifications: fully saturated with PLP after purification
# B3: Strep-tag recombinant human PLPBP (natural protein)
# chain: not shown
# modifications: pyridoxal 5'-phosphate bound at Lys47 (internal aldimine)
# Biological target: the molecule itself
# Experiment: SEC
Protein,stoichiometry N,binding result
B1,2,
B2,,binds
B3,2,

# — article PMC9558310 (ACS Chemical Biology, 2019)
